Results on 1 molecule are retold here after patent US20230235048A1.

This assay deals with human sortilin on the cell surface (recombinant huSortilin on HEK 293 cells; endogenous on U251MG cells) (human), Q99523. Put plainly: flow cytometry, hPGRN-biotin on hSortilin HEK cells clone A (note under the bar chart). Conditions: remark: other sources report otherwise.
human sortilin on the cell surface (recombinant huSortilin on HEK 293 cells; endogenous on U251MG cells) (human), Q99523, sequence (Q99523 78-831): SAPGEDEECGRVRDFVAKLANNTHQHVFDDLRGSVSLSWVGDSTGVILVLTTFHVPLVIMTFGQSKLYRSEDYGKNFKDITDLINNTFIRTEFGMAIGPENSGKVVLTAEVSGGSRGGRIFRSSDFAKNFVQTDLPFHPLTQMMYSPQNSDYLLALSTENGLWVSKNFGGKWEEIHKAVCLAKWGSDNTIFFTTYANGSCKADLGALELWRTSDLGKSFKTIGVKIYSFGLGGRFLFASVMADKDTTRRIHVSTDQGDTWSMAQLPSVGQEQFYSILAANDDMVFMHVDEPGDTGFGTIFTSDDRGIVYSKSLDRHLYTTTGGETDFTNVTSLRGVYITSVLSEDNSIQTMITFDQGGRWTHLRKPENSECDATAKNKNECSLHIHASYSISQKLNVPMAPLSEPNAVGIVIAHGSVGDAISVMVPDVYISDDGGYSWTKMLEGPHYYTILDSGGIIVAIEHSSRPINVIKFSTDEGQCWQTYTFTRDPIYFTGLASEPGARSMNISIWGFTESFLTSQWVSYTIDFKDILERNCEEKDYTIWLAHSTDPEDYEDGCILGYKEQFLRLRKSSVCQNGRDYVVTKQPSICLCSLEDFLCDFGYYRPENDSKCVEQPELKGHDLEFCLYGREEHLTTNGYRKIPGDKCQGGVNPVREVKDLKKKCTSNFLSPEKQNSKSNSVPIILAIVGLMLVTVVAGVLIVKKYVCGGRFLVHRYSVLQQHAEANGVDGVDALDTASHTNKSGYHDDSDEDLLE

B1: human progranulin, biotinylated (huPGRN-Biotin), P28799 18-593 (ligand, UniProt P28799 18-593, looked up)
chain: TRCPDGQFCPVACCLDPGGASYSCCRPLLDKWPTTLSRHLGGPCQVDAHCSAGHSCIFTVSGTSSCCPFPEAVACGDGHHCCPRGFHCSADGRSCFQRSGNNSVGAIQCPDSQFECPDFSTCCVMVDGSWGCCPMPQASCCEDRVHCCPHGAFCDLVHTRCITPTGTHPLAKKLPAQRTNRAVALSSSVMCPDARSRCPDGSTCCELPSGKYGCCPMPNATCCSDHLHCCPQDTVCDLIQSKCLSKENATTDLLTKLPAHTVGDVKCDMEVSCPDGYTCCRLQSGAWGCCPFTQAVCCEDHIHCCPAGFTCDTQKGTCEQGPHQVPWMEKAPAHLSLPDPQALKRDVPCDNVSSCPSSDTCCQLTSGEWGCCPIPEAVCCSDHQHCCPQGYTCVAEGQCQRGSEIVAGLEKMPARRASLSHPRDIGCDQHTSCPVGQTCCPSLGGSWACCQLPHAVCCEDRQHCCPAGYTCNVKARSCEKEVVSAQPATFLARSPHVGVKDVECGEGHFCHDNQTCCRDNRQGWACCPYRQGVCCADRRHCCPAGFRCAARGTKCLRREAPRWDAPLRDPALRQLL
modifications: here or on the partner: biotinylated at a ratio of 5:1 using EZ-Link NHS-PEG4-Biotin
In the case of B1, the ED50 worked out at 30 nM.
